Assay results reported in PMC12266122 (2025).

B1: FLAG-TSC22D2 (full length, wild type) [human] / HA-NRBP1 WT [human] (parent complex)
chain 1: MSKMPAKKKSCFQITSVTTAQVATSITEDTESLDDPDESRTEDVSSEIFDVSRATDYGPEEVCERSSSEETLNNVGDAETPGTVSPNLLLDGQLAAAAAAPANGGGVVSARSVSGALASTLAAAATSAPAPGAPGGPQLAGSSAGPVTAAPSQPPTTCSSRFRVIKLDHGSGEPYRRGRWTCMEYYERDSDSSVLTRSGDCIRHSSTFDQTAERDSGLGATGGSVVVVVASMQGAHGPESGTDSSLTAVSQLPPSEKMSQPTPAQPQSFSVGQPQPPPPPVGGAVAQSSAPLPPFPGAATGPQPMMAAAQPSQPQGAGPGGQTLPPTNVTLAQPAMSLPPQPGPAVGAPAAQQPQQFAYPQPQIPPGHLLPVQPSGQSEYLQQHVAGLQPPSPAQPSSTGAAASPATAATLPVGTGQNASSVGAQLMGASSQPSEAMAPRTGPAQGGQVAPCQPTGVPPATVGGVVQPCLGPAGAGQPQSVPPPQMGGSGPLSAVPGGPHAVVPGVPNVPAAVPAPSVPSVSTTSVTMPNVPAPLAQSQQLSSHTPVSRSSSIIQHVGLPLAPGTHSAPTSLPQSDLSQFQTQTQPLVGQVDDTRRKSEPLPQPPLSLIAENKPVVKPPVADSLANPLQLTPMNSLATSVFSIAIPVDGDEDRNPSTAFYQAFHLNTLKESKSLWDSASGGGVVAIDNKIEQAMDLVKSHLMYAVREEVEVLKEQIKELVERNSLLERENALLKSLSSNDQLSQLPTQQANPGSTSQQQAVIAQPPQPTQPPQQPNVSSA
chain 2: not shown

Variants of: B1
Experiment: co-immunoprecipitation (HA-IP) with immunoblot densitometry; HEK293 cells stably expressing HA-NRBP1, 36 hours after transfection; N = 2, n = 2; read off a plot

Variant	response
chain 1 R161A	~0.76
chain 1 R179E	~0.09
chain 1 R179A	~0.22
chain 1 R161A, chain 1 F162A	~0.35
chain 1 R161E, chain 1 F162A, chain 1 R179E	~0.02
